Source: the DeepSol protein solubility set

Test: soluble on expression in E. coli; label from the status in PepcDB or PDB records

| Sequence | soluble on expression in E. coli |
| --- | --- |
| MKSEEAYSILDIVSESEGQGVVLTRSGSICVSFELREPECYSLTPEDIDRRDGMFREAFKFLPDGTYVHKQDVFLKERYCPDIAGGSFLDRADARHFRGRLYVSHTCVMHFVLSGLKSLEKAYISSPLSYKENLHKEDLARLDEFLEGVDNAVGIIRSMRDTEIAPMSGQEMRDFTAGYTTLFDAPGAVVDIHADTELRTGKKRARCFAVCDEIFLPDGSLDSCVRDDSLPPAGSLLYHPMLERLGMYLPYNHIVNQVVFFEGNGRLRERIARNIDIYGSNSGMSRSIKVQYQKLDELQQEILEENETLVRSFFSVCVFDESEAELEKADKKIRETLNLARLGYYIPGYENLAAVHFACVPGQIHLMPRKYLFLTTLPIALCFFLQCGSFRNDSEGIYVHDRMYQVPLRKDIWDAGKKRVNARNGMVIAGTGGGKSAFTLNLTQQLIEQDYTVVVVEFGKSFSQLCRLYPDISLHVDYDGRTALGINPFDLQGEELDNGSIEMLSGVVQKYWRHMFTKDESEKEVALTRFIQDYYENVREGHNFESFYNHVTEHYPEILARKHIPKDYFSLESFSLNCGEFLPGRRYENVCKDTGTDFSGKRFIVFELTQIKQDRFLSNLVMGMIFTVIQKKLLSDRRKRGVLIFDEYGETAQMVDTATGTGIHSSVAFCYQKIRKENGAVYTIIQNPDQLPENEHTKNIIANTDMLFVLPTKEVIYQSVIDRFRLTHPGQIALMKSMRNNFSGQRPYSECFMRLGEHYATVTRLEFSREKFLAFQTEGEIWSDLEEKNRRMSMEDAIEEYIREHQ | not soluble |
| MKSEILQQIKQYETIILHRHVRPDPDAYGSQMGLAEIIRASFPEKKVYSVGNDEVSLQFLGAVDEIADEVYKDALVIVCDTANQERVSDVRFSSGQKLIKIDHHPNDDAYGDLLWVDTTASSCSEMIVAFWETFSDELILNETAARLLYAGIVGDTGRFLYPSTTEETLRLSAHLVTFPFDRPALYRELYELPKNTVKLSGYILQNFVMDENGAATVYLSDTLLREFEVDPRDASALVSCIENVEGIKAWIMFIQEGPVFRARLRSKGPVINELAKEYGGGGHPLASGATLHNEEEIKEMTVKLARICAAKLEHHHHHH | soluble |
| MKSIPGDIPQYLLIKAQLQARIQSGALKSGDKLPSERELCAIFNTTRITIRESLAQLESSGLIWRADRRGWFVTPERLWLDPTQNTNFHKLCREQGREPKTALLSGVLTTVPVEVMEPLQLQPFDQIYLLTRLRYADGRAVCYCENHCLPARVPELLQYDLNGSLTEVYESHYNLVYTSMHLSFYPTAMPAQAAQALGVMEGRPALLLRRLNYDQHGRVLDLDIEYWRHDSLRIEVDTH | not soluble |
| MKSLTVIILYSEREQILEESIQSIWKLNLLEIIILVPNDRSNLYEIAKKHKCHIVLMGKYSTYYDGYEASVKAAKGDVLLFVDSNFLLSTNEMQRFIEPIVTNQADVVLNKIDKLIEIGKCPNMDIVWRKMLNEILSRPDLKSNSILSLPYALTKEVVENIGFNYMEDIVLSHMKIVNQGWRINDQYAINTLSKDETIEEGGYLIKKELSKNEKEKVERYLRGIAKWIEKKGRRVGFTDAGKRRDIVQKLGECKRYPSYHQGWGMHSSIYDGKQLSVIIPVQNEEETIEQVILEARKIEPLEIIVVVNGSTDQTANIAKRLGVTIIEYNERLGHNVGRAIGALEATGDILLFIDGDFSVSGSNLHHFTKAVSAGVDIALNDLNPMLHPPFYVVDVVKYMLNLAYNRPELSNGSLVAIPHAMSRSCLDAIGWESLLCPSLAQVKAILQGYRVECVHYVDVVKPNRIRLMENVSHNGHPPAVLRIIGDHVEALSYLIEQLEMDGKGDLEHHHHHH | not soluble |
| MKSPAPSRPQKMALIPACIFLCFAALSVQAEETPVTPQPPDILLGPLFNDVQNAKLFPDQKTFADAVPNSDPLMILADYRMQQNQSGFDLRHFVNVNFTLPKEGEKYVPPEGQSLREHIDGLWPVLTRSTENTEKWDSLLPLPEPYVVPGGRFREVYYWDSYFTMLGLAESGHWDKVADMVANFAHEIDTYGHIPNGNRSYYLSRSQPPFFALMVELLAQHEGDAALKQYLPQMQKEYAYWMDGVENLQAGQQEKRVVKLQDGTLLNRYWDDRDTPRPESWVEDIATAKSNPNRPATEIYRDLRSAAASGWDFSSRWMDNPQQLNTLRTTSIVPVDLNSLMFKMEKILARASKAAGDNAMANQYETLANARQKGIEKYLWNDQQGWYADYDLKSHKVRNQLTAAALFPLYVNAAAKDRANKMATATKTHLLQPGGLNTTSVKSGQQWDAPNGWAPLQWVATEGLQNYGQKEVAMDISWHFLTNVQHTYDREKKLVEKYDVSTTGTGGGGGEYPLQDGFGWTNGVTLKMLDLICPKEQPCDNVPATRPTVKSATTQPSTKEAQPTP | not soluble |
| MKSTEKKELSHFRLKLETYLNEHFPEMSGNNPFITARSDEALTAYCDAVAQGFSHPEAESMASEVLYQGLHFSRYDTLVSVLEREFEQELPSPLPERLAPILLKNKAIQSVFAKYDLTDDFEASPEYEHLYTELTGTIVLLIESNHLPTIGGGNDTV | soluble |
| MKTCFLSIWRVVDPIYFFFSRLSLIDNDQKSVFRVRLTKYKGHHVVLSDGTHIRKNDVLVKIHLHNIKLIRELQSIESAVRKGIIIYQKVYPSMPLLLDYINNHKKSEKIKGNHWITMLDKGVERLGFDVITPVNPFYRCFKKVSHVPILYLTSKPVSLRHLPNSSYLFISKEKLQKTYQKKDMAGDPLEHHHHHH | not soluble |
| MKTDGEFVSEHLMELITQQNLTINRVATLAGLNQSTVNAMFEGRSKRPTITTIRKVCGTLGISVHDFFDFPPYNEVEK | soluble |
| MKTHQYELIDEKVFEHEFDNGLKLFIIPKPGFQKTYVTYTTQFGSLDNHFKPIGSQQFVKVPDGVAHFLEHKLFEKEDEDLFTAFAEENAQANAFTSFDRTSYLFSATSNIESNIKRLLNMVETPYFTEETVNKEKGIIAEEIKMYQEQPGYKLMFNTLRAMYSKHPIRVDIAGSVESIYEITKDDLYLCYETFYHPSNMVLFVVGDVSPQSIIKLVEKH | not soluble |
| MKTIGILGGMGPLATAELFRRIVIKTPAKRDQEHPKVIIFNNPQIPDRTAYILGKGEDPRPQLIWTAKRLEECGADFIIMPCNTAHAFVEDIRKAIKIPIISMIEETAKKVKELGFKKAGLLATTGTIVSGVYEKEFSKYGVEIMTPTEDEQKDVMRGIYEGVKAGNLKLGRELLLKTAKILEERGAECIIAGCTEVSVVLKQDDLKVPLIDPMDVIAEVAVKVALEK | soluble |
| MKTITQQYLTGERALFKAHDLEIDNTTFADGESPLKESRNVTLKQPIFKWKYPLWYSQHVTVDQGLFETMSRSGIWYTKDITITNSTLQAPKLFRRASQVKLAHVHFSDAEETLWNCQDITLNDVQAAGDYFGMNSQNIRIDGFNLVGNYAFDGAKNVEIHHATLMTKDALWNCENVTVYDSQIIGEYLGWNSKNIRFVNCTIESDQGLCYMDNVKLENCTLLNTDLAFEYCRNIDADVVSTIDSVKNPLSGRIHAQAIGEIIMDDPEVDPHQTLISVDHESRAPHAV | not soluble |
| MKTKTARLFALTALTAATTMPLAAQVSAQEASPREATISVSGEGQAAIAPDMAILSFSVVKQAETAAAALTENSKALAEVLKALKEAAIEDRDLQTSNFSVQPLYKHYEPKDGVYVAPEITGYQVSNGLTVRVRDLKMLGTILDTSVKLGINQGGDITFTNDKPEATVTEARKQAVADAIAKAKTLTEAAGVKLGRVIQISENSQRPMPVPAGMMRASMMKEADSVPIASGENNYSVVVNVTFALDQ | not soluble |
| MKTTTATNSILFKLYFAPGATEQISIEYYNLQQLIEKLELKLGELGLNFNVVFWKNDKGNLISMSQNAQRVLKKMANRDSASIFVIADSDSSDSSSDSSDSGDEDVIIADAPEVAPHRRHCGRRDRSRSRGFDRSRSRSRSRSNFHDHHKRHQMKKLMWKRFQESHGHPEFKRRHCFGGRRARSASPIGRRPCREGEEFKRHPLGSFGTPCGREEFEGPTGGFGRPFGRRGMDHHGFNFHRHHHPFGAFHGFGGHHHGFGHGFGHHGFKRQHPFERRFGRC | not soluble |
| MKTYRIRKPKIVVVGGGTGLPVILKSLRNQSVDITAVVTVADDGGSSGELRSSINNMTPPGDLRNVLVALSDMPQLYEDIFQYRFDKSDSHFANHAIGNLIIAAVSEMRGSTYEAIQLLSKMMHVDGRIYPSSERPLTLHAVFKDGSVAVGESKIALDRKTIDHVFVTNTHGEEQPRAARKVVKAIEEADMVVLGPGSLFTSILPNLVITEIGEAIKQTAAEVVYICNIMTQKGETEHFTDADHVRVLNEHLQAQFVDTVLVNTEKVPENYMDPEIYDEYLVQVKHDFQGLREEGCRVISTDFLELRDGGVFHDGEKVVEELFRIVFGTKYLEHHHHHH | soluble |
